Measured values published in paper PMC9592557, “Structures of SAS-6 coiled coil hold implications for the polarity of the centriolar cartwheel” (Structure(London, England:1993), 2022).

Key:
[1] = molecular target: DrSAS-6_CC_(Middle) (Danio rerio) (UniProt Q7ZVT3); experiment: SEC-MALS; step: monomers to the coiled-coil dimer; Superdex 75 or 200 10/300 GL, 10 mM K-PIPES pH 7.2
[2] = molecular target: HsSAS-6_CC_(Middle) (human) (UniProt Q6UVJ0); experiment: as above
[3] = molecular target: CrSAS-6_CC_(Middle) (C. reinhardtii) (UniProt A9CQL4); experiment: as above
ITC = molecular target: the molecule itself; experiment: ITC
[4] = molecular target: CrSAS-6_CC_(Middle) (C. reinhardtii) (UniProt A9CQL4); experiment: ITC; dilution ITC, step: higher-order complex to coiled-coil dimers; 1.82 mM monomer in the syringe injected into buffer alone, 20°C, 10 mM K-PIPES pH 7.2, dissociation model
[5] = molecular target: the molecule itself; experiment: cryo-EM cartwheel reconstitution (ring stacking) assay; purified protein dialysed overnight at 4°C into 10 mM K-PIPES pH 7.2 (no salt), vitrified, isolated cartwheels analysed

Molecule	binding result [5]	other results
DrSAS-6_CC_(Middle) (from UniProt Q7ZVT3 243-358) (domain or fragment)	–	stoichiometry N [1]: 2
HsSAS-6_CC_(Middle) (from UniProt Q6UVJ0 211-312) (domain or fragment)	–	stoichiometry N [2]: 2
CrSAS-6_CC_(Middle) (domain or fragment) KLREVKYELDTKVSELSHKLGSSEGSNRSLEEETARLRSLNQQLSSSKHELEIQLNEAKAKVLALDEKAQSQGDVIEQQRGRLRDMEAALRQTEQRCADLRDTLASAEGRAKEA	–	stoichiometry N [3]: 2; Kd (ITC): 2300 µM; dH [4]: 1 kcal/mol
CrSAS-6NL (domain or fragment, C. reinhardtii, UniProt A9CQL4 1-503, looked up, C. reinhardtii SAS-6, residues 1-503: head domain and full-length coiled-coil domain, without the disordered C-terminal tail; also called WT CrSAS-6NL; C. reinhardtii SAS-6 (1-503); source: E. coli BL21(DE3), purified (HiTrap Talon, 3C cleavage, SEC); not shown: His6, N-terminal, cleaved) MPLLLDDGDPKAQTGFDLSTATTLFWRPVPVHVKQQDREDVLEELTFRILTGVAKQNHNLRILRIHISSDSDLFFLHTLEVSEEDFQSLKNDQGILVDFASFPGKIISLLEKCILAQPGDSPRFQAVLTIRGGESVFKIVEINDFKQLPHITLAFRPGNDSVVKQFLAFRLSEVKGTCHDLSDDLSRTRDDRDSMVAQLAQCRQQLAQLREQYDKHLLEVQAQAKTQQASAHEERIREKSQLKDQFEKERGEMEGRYRDQIAALNTRLGELDTENRKLREVKYELDTKVSELSHKLGSSEGSNRSLEEETARLRSLNQQLSSSKHELEIQLNEAKAKVLALDEKAQSQGDVIEQQRGRLRDMEAALRQTEQRCADLRDTLASAEGRAKEAQAEVLKGNQAIEKLTNDLRLAKEKTKRKAAIILRQEEELQEREQSLANATRDVGVLGQQAESLRKDVASLHSENDSLRSKLEDSKQQLQSNEQMIRWLNQQVTEAQLHASGAT	binds	–
CrSAS-6LD (domain or fragment, C. reinhardtii, UniProt A9CQL4 1-503, looked up, C. reinhardtii SAS-6, residues 1-503, mutant aimed at the symmetric coiled-coil complex; also called C. reinhardtii SAS-6 (1-503; L339E/D378N); source: E. coli BL21(DE3), purified (HiTrap Talon, 3C cleavage, SEC); not shown: His6, N-terminal, cleaved) MPLLLDDGDPKAQTGFDLSTATTLFWRPVPVHVKQQDREDVLEELTFRILTGVAKQNHNLRILRIHISSDSDLFFLHTLEVSEEDFQSLKNDQGILVDFASFPGKIISLLEKCILAQPGDSPRFQAVLTIRGGESVFKIVEINDFKQLPHITLAFRPGNDSVVKQFLAFRLSEVKGTCHDLSDDLSRTRDDRDSMVAQLAQCRQQLAQLREQYDKHLLEVQAQAKTQQASAHEERIREKSQLKDQFEKERGEMEGRYRDQIAALNTRLGELDTENRKLREVKYELDTKVSELSHKLGSSEGSNRSLEEETARLRSLNQQLSSSKHELEIQLNEAKAKVEALDEKAQSQGDVIEQQRGRLRDMEAALRQTEQRCADLRNTLASAEGRAKEAQAEVLKGNQAIEKLTNDLRLAKEKTKRKAAIILRQEEELQEREQSLANATRDVGVLGQQAESLRKDVASLHSENDSLRSKLEDSKQQLQSNEQMIRWLNQQVTEAQLHASGAT	binds	–
CrSAS-6VD (domain or fragment, C. reinhardtii, UniProt A9CQL4 1-503, looked up, C. reinhardtii SAS-6, residues 1-503, mutant aimed at the asymmetric coiled-coil complex; also called C. reinhardtii SAS-6 (1-503 V351E/D361N); source: E. coli BL21(DE3), purified (HiTrap Talon, 3C cleavage, SEC); not shown: His6, N-terminal, cleaved) MPLLLDDGDPKAQTGFDLSTATTLFWRPVPVHVKQQDREDVLEELTFRILTGVAKQNHNLRILRIHISSDSDLFFLHTLEVSEEDFQSLKNDQGILVDFASFPGKIISLLEKCILAQPGDSPRFQAVLTIRGGESVFKIVEINDFKQLPHITLAFRPGNDSVVKQFLAFRLSEVKGTCHDLSDDLSRTRDDRDSMVAQLAQCRQQLAQLREQYDKHLLEVQAQAKTQQASAHEERIREKSQLKDQFEKERGEMEGRYRDQIAALNTRLGELDTENRKLREVKYELDTKVSELSHKLGSSEGSNRSLEEETARLRSLNQQLSSSKHELEIQLNEAKAKVLALDEKAQSQGDEIEQQRGRLRNMEAALRQTEQRCADLRDTLASAEGRAKEAQAEVLKGNQAIEKLTNDLRLAKEKTKRKAAIILRQEEELQEREQSLANATRDVGVLGQQAESLRKDVASLHSENDSLRSKLEDSKQQLQSNEQMIRWLNQQVTEAQLHASGAT	binds	–
CrSAS-6LE (domain or fragment, C. reinhardtii, UniProt A9CQL4 1-503, looked up, C. reinhardtii SAS-6, residues 1-503, control mutant; also called C. reinhardtii SAS-6 (1-503; L306A/E326A); source: E. coli BL21(DE3), purified (HiTrap Talon, 3C cleavage, SEC); not shown: His6, N-terminal, cleaved) MPLLLDDGDPKAQTGFDLSTATTLFWRPVPVHVKQQDREDVLEELTFRILTGVAKQNHNLRILRIHISSDSDLFFLHTLEVSEEDFQSLKNDQGILVDFASFPGKIISLLEKCILAQPGDSPRFQAVLTIRGGESVFKIVEINDFKQLPHITLAFRPGNDSVVKQFLAFRLSEVKGTCHDLSDDLSRTRDDRDSMVAQLAQCRQQLAQLREQYDKHLLEVQAQAKTQQASAHEERIREKSQLKDQFEKERGEMEGRYRDQIAALNTRLGELDTENRKLREVKYELDTKVSELSHKLGSSEGSNRSAEEETARLRSLNQQLSSSKHALEIQLNEAKAKVLALDEKAQSQGDVIEQQRGRLRDMEAALRQTEQRCADLRDTLASAEGRAKEAQAEVLKGNQAIEKLTNDLRLAKEKTKRKAAIILRQEEELQEREQSLANATRDVGVLGQQAESLRKDVASLHSENDSLRSKLEDSKQQLQSNEQMIRWLNQQVTEAQLHASGAT	binds	–
CrSAS-6LQ (domain or fragment, C. reinhardtii, UniProt A9CQL4 1-503, looked up, C. reinhardtii SAS-6, residues 1-503, control mutant; also called C. reinhardtii SAS-6 (1-503; L320A/Q330A); source: E. coli BL21(DE3), purified (HiTrap Talon, 3C cleavage, SEC); not shown: His6, N-terminal, cleaved) MPLLLDDGDPKAQTGFDLSTATTLFWRPVPVHVKQQDREDVLEELTFRILTGVAKQNHNLRILRIHISSDSDLFFLHTLEVSEEDFQSLKNDQGILVDFASFPGKIISLLEKCILAQPGDSPRFQAVLTIRGGESVFKIVEINDFKQLPHITLAFRPGNDSVVKQFLAFRLSEVKGTCHDLSDDLSRTRDDRDSMVAQLAQCRQQLAQLREQYDKHLLEVQAQAKTQQASAHEERIREKSQLKDQFEKERGEMEGRYRDQIAALNTRLGELDTENRKLREVKYELDTKVSELSHKLGSSEGSNRSLEEETARLRSLNQQASSSKHELEIALNEAKAKVLALDEKAQSQGDVIEQQRGRLRDMEAALRQTEQRCADLRDTLASAEGRAKEAQAEVLKGNQAIEKLTNDLRLAKEKTKRKAAIILRQEEELQEREQSLANATRDVGVLGQQAESLRKDVASLHSENDSLRSKLEDSKQQLQSNEQMIRWLNQQVTEAQLHASGAT	binds	–
